The results in this text go back to article PMC3248438, “Probing the SELEX Process with Next-Generation Sequencing”.

In general, Kd refers to the constant that tells how readily two partners part at equilibrium.

For this data set, the target named is Streptavidin (UniProt P22629 25-183). Briefly: SPR; kon 1.5e4 M-1 s-1, koff 2.2e-3 s-1; 1:1 Langmuir fit, chi2 0.535; 900 RU chip; Binding buffer 20 mM Tris, 140 mM NaCl, 5 mM MgCl2, 2 mM CaCl2, 2 mM KCl, 0.05% Tween 20, pH 7.4; SPR at 25 C, 30 ul/min; FLAA 1 h at room temperature. As to conditions: protein: commercial; chain copies: 4.
Sequence of Streptavidin (P22629 25-183): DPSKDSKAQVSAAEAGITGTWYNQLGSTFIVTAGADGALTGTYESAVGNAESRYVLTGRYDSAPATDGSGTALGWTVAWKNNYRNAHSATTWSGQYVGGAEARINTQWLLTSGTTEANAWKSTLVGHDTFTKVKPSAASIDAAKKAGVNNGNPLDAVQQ

Molecule ATCTCCGATTGCCCCACGACGCAGTGGTCGGAGTTACTTT (ssDNA) [R10#17] displayed a Kd of 140 nM.
